Laboratory results reported in PMC7666158, “Co-regulation of the transcription controlling ATF2 phosphoswitch by JNK and p38” (Nature Communications, 2020).

Assays:
[1] = molecular target: T1, pp-p38 (activated, double-phosphorylated p38alpha) (human, UniProt Q16539 1-360, double-phosphorylated on the activation loop (pp-p38; T180/Y182 as named for the anti-pp-p38 antibody; pY182 in Fig. 5b)); experiment: in vitro kinase assay fitted with a kinetic model; 5 nM pp-JNK or pp-p38, MBP-ATF2(19-100) substrate 0.5-100 uM, 5 mM ATP, kinase buffer; p-T71 and p-T69/T71 by quantitative dot-blots; binding rates (kon, koff) and reaction rates fitted simultaneously with the BioNetGen model (PyBioNetFit); conditions: both partners purified
T1 construct: human p38alpha (MAPK14), phosphorylated form; also called pp-p38α; source: E. coli, co-expressed with constitutively active GST-tagged MAP2Ks, purified
T1 sequence (Q16539 whole entry): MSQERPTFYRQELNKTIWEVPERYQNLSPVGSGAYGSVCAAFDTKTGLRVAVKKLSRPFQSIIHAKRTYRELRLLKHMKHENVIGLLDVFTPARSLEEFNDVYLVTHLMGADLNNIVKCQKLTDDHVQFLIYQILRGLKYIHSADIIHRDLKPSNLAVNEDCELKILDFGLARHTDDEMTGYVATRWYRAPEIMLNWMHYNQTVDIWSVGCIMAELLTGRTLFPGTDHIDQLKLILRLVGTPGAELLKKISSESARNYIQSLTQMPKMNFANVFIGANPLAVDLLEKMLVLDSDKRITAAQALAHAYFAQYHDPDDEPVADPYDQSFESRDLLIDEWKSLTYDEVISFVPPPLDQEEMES

[2] = molecular target: T1, pp-p38 (activated, …); experiment: as above; conditions: both partners purified; remark: listed apart in the source

Kd [1]: ~25 µM
koff [2]: 429 s⁻¹
kon [2]: 1.72e+07 M⁻¹ s⁻¹
B1: MBP-ATF2(19-100)-WT (domain or fragment, human, UniProt P15336-1 19-100, looked up)
chain: MSDDKPFLCTAPGCGQRFTNEDHLAVHKHKHEMTLKFGPARNDSVIVADQTPTPTRFLKNCEEVGLFNELASPFENEFKKAS
notes: A TEV site lies between MBP and ATF2; also called MBP-ATF2-His6; ATF2 TAD; source: E. coli BL21(DE3), purified (Ni-NTA, maltose resin); not shown: MBP, N-terminal, kept; His6, C-terminal, kept
